According to US20220402983A1 (Janssen / Centocor, published 2022):
*1 amine or outer side, *2 acyl side, *3 side chain or, on linkers, in order; H or OH if unused. Bridges are numbered along the chain shown (N, C = ends). Primed or numbered codes have the meaning given here. Where no end group is shown, it is not given here. [ ]: non-standard residue; d: D form. The star is where a group is joined. Phe(4-OMe)″ = 4-methoxyphenylalanine, COc1ccc(C[C@H](N[*:1])C(=O)[*:2])cc1; Phe(4-CONH2) = NC(=O)c1ccc(C[C@H](N)C(=O)O)cc1; αMeW = C[C@](N)(Cc1c[nH]c2ccccc12)C(=O)O; FPrpTriazoleMe_Acid = not defined here; 2Nal = N[C@@H](Cc1ccc2ccccc2c1)C(=O)O; AEF = NCCOc1ccc(C[C@H](N)C(=O)O)cc1; αMeF = C[C@](N)(Cc1ccccc1)C(=O)O; αMeE = C[C@](N)(CCC(=O)O)C(=O)O; Pen = CC(C)(S)[C@H](N)C(=O)O; Ac6c = NC1(C(=O)O)CCCCC1; Thp = NC1(C(=O)O)CCOCC1; Abu = CC[C@H](N)C(=O)O; pr = not defined here; Aib = CC(C)(N)C(=O)O; Piv = CC(C)(C)C(=O)*; Alloc = C=CCOC(=O)*; Propyl = CCC*

T1: human IL-23R (interleukin-23 receptor) (human, UniProt Q5VWK5 24-629)
T1 sequence (looked up): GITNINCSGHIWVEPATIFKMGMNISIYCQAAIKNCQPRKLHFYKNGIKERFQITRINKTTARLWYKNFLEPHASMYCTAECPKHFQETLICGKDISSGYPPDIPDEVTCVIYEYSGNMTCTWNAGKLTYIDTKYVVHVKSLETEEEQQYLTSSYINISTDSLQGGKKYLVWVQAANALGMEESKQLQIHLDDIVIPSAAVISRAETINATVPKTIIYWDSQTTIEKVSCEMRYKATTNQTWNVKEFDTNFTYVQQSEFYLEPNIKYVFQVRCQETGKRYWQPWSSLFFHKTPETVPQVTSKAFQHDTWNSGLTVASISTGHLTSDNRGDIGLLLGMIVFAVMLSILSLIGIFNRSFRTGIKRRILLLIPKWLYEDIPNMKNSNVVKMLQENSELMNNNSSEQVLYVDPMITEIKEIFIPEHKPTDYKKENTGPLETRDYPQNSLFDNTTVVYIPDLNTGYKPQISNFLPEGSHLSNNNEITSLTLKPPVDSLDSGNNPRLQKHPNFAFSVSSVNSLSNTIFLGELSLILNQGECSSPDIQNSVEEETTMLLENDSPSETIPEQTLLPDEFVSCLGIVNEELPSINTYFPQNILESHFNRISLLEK

B1: Compound No. 33 (peptide)
peptide: Propyl-[dR][Pen]QTWQ[Pen][AEF][2Nal][Thp]K(Alloc)NF-NH2
modifications: disulfide 2-7
SMILES: C=CCOC(=O)NCCCC[C@H](NC(=O)C1(NC(=O)[C@H](Cc2ccc3ccccc3c2)NC(=O)[C@H](Cc2ccc(OCCN)cc2)NC(=O)[C@H]2NC(=O)[C@H](CCC(N)=O)NC(=O)[C@H](Cc3c[nH]c4ccccc34)NC(=O)[C@H]([C@@H](C)O)NC(=O)[C@H](CCC(N)=O)NC(=O)[C@@H](NC(=O)[C@@H](CCCNC(=N)N)NCCC)C(C)(C)SSC2(C)C)CCOCC1)C(=O)N[C@@H](CC(N)=O)C(=O)N[C@@H](Cc1ccccc1)C(N)=O

Biological target: T1, human IL-23R (interleukin-23 receptor)
Assay: cell-based or functional assay

Binder	PBMC pSTAT3 IC50 (nM)
[dR]CQTWQ[Pen][AEF][2Nal][Thp]EN[αMeF]-NH2 (disulfide 2-7; not fully specified (N-terminus)) [Compound No. 23]	17 nM
FPrpTriazoleMe_Acid-[dR][Abu]QTWQC[Phe(4-OMe)″][2Nal][Thp]EN[Thp]-NH2 (thioether 2-7; reading uncertain) [Compound No. 25]	21 nM
pr-[dR][Pen]QTWQ[Pen][AEF][2Nal][Thp]K(Piv)NF-NH2 (disulfide 2-7; reading uncertain) [Compound No. 26]	8.2 nM
Ac-[dR][Abu]QTWQC[AEF][2Nal][Ac6c][αMeE]NF-NH2 (thioether 2-7) [Compound No. 27]	11 nM
Ac-[dR][Abu]QTWQC[AEF][2Nal][Ac6c][αMeE]NF[Aib]-NH2 (thioether 2-7) [Compound No. 28]	23 nM
Ac-[dR][Abu]QTWQC[AEF][2Nal][Ac6c][αMeE]N[αMeF]-NH2 (thioether 2-7) [Compound No. 29]	30 nM
Ac-[dR][Abu]QTWQC[AEF][2Nal][Thp]QN[αMeF]-NH2 (thioether 2-7) [Compound No. 30]	25 nM
Ac-[dR][Abu]QTWQC[AEF][2Nal][Thp][αMeE]N[αMeW]-NH2 (thioether 2-7) [Compound No. 31]	16 nM
Ac-[dR][Abu]QTWQC[AEF][2Nal][Thp][αMeE]N[1(2Nal)]-NH2 (thioether 2-7) [Compound No. 32]	19 nM
B1	11 nM
Ac-[dR][Abu]QTWQC[AEF][2Nal][Thp][αMeE]N[Phe(4-CONH2)]-NH2 (thioether 2-7) [Compound No. 34]	5.8 nM
Ac-[dR][Abu]QTWQC[AEF][2Nal][Thp][αMeE]N[2Nal]-NH2 (thioether 2-7) [Compound No. 35]	25 nM
Ac-[dR][Abu]QTWQC[AEF][2Nal][Thp][αMeE]N[αMePhe(4-F)]-NH2 (thioether 2-7) [Compound No. 36]	14 nM
Ac-[dR][Abu]QTWQC[AEF][2Nal][Thp][αMeE]N[Thp]-NH2 (thioether 2-7) [Compound No. 37]	11 nM
Ac-[dR][Abu]QTWQC[AEF][2Nal][Ac6c][αMeE]N[Thp]-NH2 (thioether 2-7) [Compound No. 38]	4.3 nM
Ac-[dR][Abu]QTWQ[Pen][AEF][2Nal][Ac6c][αMeE]N[Thp]-NH2 (thioether 2-7) [Compound No. 39]	92 nM
